Measured values published in US20240092925A1 (NANJING IASO BIOTECHNOLOGY, published 2024).

T1: Recombinant biotinylated Human CD19 Protein-Fc (Kactus, CD2-HE121) (human, UniProt P15391 20-291, biotinylated (site not stated))
T1 construct: bought; also called CD19-Fc-Bio; Kactus-CD19-FC-Bio; not shown: Fc tag
T1 sequence (looked up): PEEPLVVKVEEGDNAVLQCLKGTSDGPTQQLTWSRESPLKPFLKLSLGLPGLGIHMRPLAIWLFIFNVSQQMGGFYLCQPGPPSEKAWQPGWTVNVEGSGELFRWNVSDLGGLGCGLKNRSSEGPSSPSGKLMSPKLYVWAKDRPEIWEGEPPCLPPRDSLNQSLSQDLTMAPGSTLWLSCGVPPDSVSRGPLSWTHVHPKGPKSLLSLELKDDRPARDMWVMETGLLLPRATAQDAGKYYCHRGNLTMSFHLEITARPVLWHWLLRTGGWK

B1: phage monoclonal clone #42 (single-domain antibody) (VHH)
VHH: EVQLLESGGGLVQPGGSLRLSCAASGFTFSHSAMGWVRQAPGKGLEWVSSIYARGGYTYYADSVKGRFTISRDNSKNTLYLQMNSLRAEDTAVYYCARGYHLEYMVSQDVWGQGTLVTVSS
B2: phage monoclonal clone #61 (single-domain antibody) (VHH)
VHH: QVQLVQSGAEVKKPGSSVKVSCKASGGTFSNYAISWVRQAPGQGLEWMGWISAYNGDTKYAQRLQGRVTMTTDTSTSTAYMELRNLRSDDTAVYYCARYESMSGQDIWGQGTLVTVSS
B3: phage monoclonal clone #62 (single-domain antibody) (VHH)
VHH: QVQLVQSGAEVKKPGESLRISCKASGYSFSNHWIGWVRQKPGKGLEWMGSVYPGDSDTRYSPSFQGHVTVSADKSMNTAYLQWSSLKTSDTAMYYCARGGTIDGDYGGRQDFWGQGTMVTVSS
B4: phage monoclonal clone #60 (single-domain antibody) (VHH)
VHH: QVQLVESGGGLVQPGGSLRLSCAASGFTFSSYEMNWVRQAPGKGLEWVSYISSSGSTIYYADSVKGRFTISRDNAKNSLYLQMNSLRAEDTAVYYCARVAQREGDVWGKGTTVTVSS

target: T2, Streptavidin (Pierce, 21125) (UniProt P22629 37-163, limits assumed); experiment: phage ELISA
T2 construct: coated on the ELISA plate; non-related antigen; also called SA
T2 sequence (P22629 37-163 limits assumed): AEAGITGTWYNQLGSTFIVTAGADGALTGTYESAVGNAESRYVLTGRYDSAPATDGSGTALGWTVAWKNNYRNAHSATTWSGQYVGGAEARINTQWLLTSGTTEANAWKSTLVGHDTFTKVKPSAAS

Binder	binding result
B1	no binding
B2	no binding
B3	no binding
B4	no binding

target: T1, Recombinant biotinylated Human CD19 …; experiment: phage ELISA

Binder	binding result
B1	no binding
B2	no binding
B3	no binding
B4	no binding

target: T3, Biotinylated Recombinant human BAFFR Protein (Kactus, BAF-HM40RB) (human, UniProt Q96RJ3 7-71, limits assumed, biotinylated (site not stated)); experiment: phage ELISA
T3 construct: bought; also called Kactus-BAFFR-his-Bio; not shown: his tag
T3 sequence (Q96RJ3 7-71 limits assumed): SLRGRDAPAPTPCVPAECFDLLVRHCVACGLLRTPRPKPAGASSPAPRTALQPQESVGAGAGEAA

Binder	binding result
B1	no binding
B2	no binding
B3	no binding
B4	no binding
